These results are taken from article PMC10776578, “Epstein-Barr virus-driven B cell lymphoma mediated by a direct LMP1-TRAF6 complex” (Nature Communications, 2024).

To fix the notation:
B1: unnamed (parent)
chain 1: DHQIRELTAKMETQSMYVSELKRTIRTLEDKVAEIEAQQCNGIYIWKIGNFGMHLKCQEEEKPVVIHSPGFYTGKPGYKLCMRLHLQLPTAQRCANYISLFVHTMQGEYDSHLPWPFQGTIRLTILDQSEAPVRQNHEEIMDAKPELLAFQRPTIPRNPKGFGYVTFMHLEALRQRTFIKDDTLLVRCEVSTRFDMGSLRREGFQPRSTDAGV
chain 2: LIWMYYHGQRHSDEHHHDDSLPHPQQATDDSGHESDSNSNEGRHHLLVSGAGDGPPLCSQNLGAPGGGPDNGPQDPDNTDDNGPQDPDNTDDNGPHDPLPQDPDNTDDNGPQDPDNTDDNGPHDPLPHSPSDSAGNDGGPPQLTEEVENKGGDQGPPLMTDGGGGHSHDSGHGGGDPHLPTLLLGSSGSGGDDDDPHGPVQLSYYD

In the experiment the parent is B1. The experiment can be described thus: AlphaScreen. The settings on record: with partner chain of the complex shown; for percent of parent: parent: 100, read off a plot. On the technique in general: Alpha assays give light when donor and acceptor beads are brought close together.

As for chain 2 V200A, the percent of parent (100 nM His-TRAF6) amounted to 15%, the percent of parent (300 nM His-TRAF6) was determined as 15% and the percent of parent (1000 nM His-TRAF6) stood at 14%.
The term Kd denotes the concentration at which binding is half-saturated. Turning to chain 2 LIWMYYHGQRHSDEHHHDDSLPHPQQATDDSGHESDSNSNEGRHHLLVSGAGDGPPLCSQNLGAPGGGPDNGPQDPDNTDDNGPQDPDNTDDNGPHDPLPQDPDNTDDNGPQDPDNTDDNGPHDPLPHSPSDSAGNDGGPPQLTEEVENKGGDQGPPLMTDGGGGHSHDSGHGGGDPHLPTLLLGSSGSGGDDDDPHGPVQLSFYD [chain 2 Y204F], the Kd is 21.7 nM.
As for chain 2 Y204A, the percent of parent is 11% (100 nM His-TRAF6), 10% (300 nM His-TRAF6) and 9% (1000 nM His-TRAF6).
For chain 2 LIWMYYHGQRHSDEHHHDDSLPHPQQATDDSGHESDSNSNEGRHHLLVSGAGDGPPLCSQNLGAPGGGPDNGPQDPDNTDDNGPQDPDNTDDNGPHDPLPQDPDNTDDNGPQDPDNTDDNGPHDPLPHSPSDSAGNDGGPPQLTEEVENKGGDQGPPLMTDGGGGHSHDSGHGGGDPHLPTLLLGSSGSGGDDDDPHGPVQASYYD [chain 2 L202A] the same measures were 100%, 98% and 98%.
For chain 2 LIWMYYHGQRHSDEHHHDDSLPHPQQATDDSGHESDSNSNEGRHHLLVSGAGDGPPLCSQNLGAPGGGPDNGPQDPDNTDDNGPQDPDNTDDNGPHDPLPQDPDNTDDNGPQDPDNTDDNGPHDPLPHSPSDSAGNDGGPPQLTEEVENKGGDQGPPLMTDGGGGHSHDSGHGGGDPHLPTLLLGSSGSGGDDDDPHGPVQLSYAD [chain 2 Y205A] the same measures were 47%, 65% and 84%.
For the variant chain 2 LIWMYYHGQRHSDEHHHDDSLPHPQQATDDSGHESDSNSNEGRHHLLVSGAGDGPPLCSQNLGAPGGGPDNGPQDPDNTDDNGPQDPDNTDDNGPHDPLPQDPDNTDDNGPQDPDNTDDNGPHDPLPHSPSDSAGNDGGPPQLTEEVENKGGDQGPPLMTDGGGGHSHDSGHGGGDPHLPTLLLGSSGSGGDDDDPHAPVQLSYYD [chain 2 G198A], the percent of parent amounted to 75% (100 nM His-TRAF6), 84% (300 nM His-TRAF6) and 96% (1000 nM His-TRAF6).
Turning to chain 2 LIWMYYHGQRHSDEHHHDDSLPHAQAAADDSGHESDSNSNEGRHHLLVSGAGDGPPLCSQNLGAPGGGPDNGPQDPDNTDDNGPQDPDNTDDNGPHDPLPQDPDNTDDNGPQDPDNTDDNGPHDPLPHSPSDSAGNDGGPPQLTEEVENKGGDQGPPLMTDGGGGHSHDSGHGGGDPHLPTLLLGSSGSGGDDDDPHGPVQLSYYD [chain 2 P24A Q26A T28A], the percent of parent (100 nM His-TRAF6) turned out to be 83%, the percent of parent (300 nM His-TRAF6) is 98% and the percent of parent (1000 nM His-TRAF6) is 92%.
chain 2 LIWMYYHGQRHSDEHHHDDSLPHPQQATDDSGHESDSNSNEGRHHLLVSGAGDGPPLCSQNLGAPGGGPDNGPQDPDNTDDNGPQDPDNTDDNGPHDPLPQDPDNTDDNGPQDPDNTDDNGPHDPLPHSPSDSAGNDGGPPQLTEEVENKGGDQGPPLMTDGGGGHSHDSGHGGGDPHLPTLLLGSSGSGGDDDDPHGPVQLAYYD [chain 2 S203A]: the percent of parent by setting is: (100 nM His-TRAF6) 94%; (300 nM His-TRAF6) 88%; (1000 nM His-TRAF6) 90%.
